Test results reported in the supplement of paper PMC9112550, “Optimization of the antimicrobial peptide Bac7 by deep mutational scanning” (BMC Biology, 2022).

tested on: Escherichia coli TOP10; assay: shrunken log2 fold change of peptide-encoding DNA abundance (4.5 h post-induction vs induction); higher = less antimicrobial activity (less host growth inhibition); conditions: time post-induction: 4.5 h; library: site-saturation at positions 5, 18, 19, 20
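Also: peptides expressed intracellularly from a pBAD plasmid library in pooled LB shake-flask culture, induced with 0.3% L-arabinose, DNA abundance read by NGS, three biological replicates, DESeq2 with apeglm shrinkage.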

| Sequence | shrunken log2 fold change |
| --- | --- |
| RRIRRRPPRLPRPRPRPWQMPRP | 0.0303 |
| RRIRRRPPRLPRPRPRPTLVPRP | 0.315 |
| RRIRTRPPRLPRPRPRPWDNPRP | -0.0778 |
| RRIRARPPRLPRPRPRPNTRPRP | 0.12 |
| RRIRYRPPRLPRPRPRPMGSPRP | -0.106 |
| RRIRCRPPRLPRPRPRPMIRPRP | -0.0688 |
| RRIRVRPPRLPRPRPRPLAQPRP | 0.187 |
| RRIRQRPPRLPRPRPRPWAWPRP | -0.0707 |
| RRIRIRPPRLPRPRPRPNRCPRP | -0.154 |
| RRIRERPPRLPRPRPRPWIDPRP | -0.0474 |
| RRIRKRPPRLPRPRPRPWSNPRP | 0.202 |
| RRIRSRPPRLPRPRPRPMYAPRP | -0.29 |
| RRIRSRPPRLPRPRPRPDPQPRP | 0.282 |
| RRIRYRPPRLPRPRPRPFAPPRP | -0.386 |
| RRIRGRPPRLPRPRPRPGRAPRP | 0.84 |
| RRIRLRPPRLPRPRPRPRLPPRP | 0.149 |
| RRIRTRPPRLPRPRPRPRREPRP | 0.351 |
| RRIRMRPPRLPRPRPRPRVDPRP | 0.95 |
| RRIRRRPPRLPRPRPRPGFFPRP | 0.268 |
| RRIRLRPPRLPRPRPRPKMQPRP | 0.282 |
| RRIRKRPPRLPRPRPRPMSMPRP | 0.0472 |
| RRIRKRPPRLPRPRPRPIGMPRP | 0.213 |

| Sequence | shrunken log2 fold change |
| --- | --- |
| RRIRMRPPRLPRPRPRPQEKPRP | 0.01 |
| RRIRQRPPRLPRPRPRPVSKPRP | -0.014 |
| RRIRSRPPRLPRPRPRPPVIPRP | -0.0672 |
| RRIRWRPPRLPRPRPRPVRHPRP | 0.245 |
| RRIRKRPPRLPRPRPRPTEIPRP | 0.162 |
| RRIRFRPPRLPRPRPRPPTCPRP | 0.186 |
| RRIRIRPPRLPRPRPRPWAVPRP | -0.203 |
| RRIRYRPPRLPRPRPRPHMVPRP | -0.126 |
| RRIRLRPPRLPRPRPRPDNSPRP | -0.0436 |
| RRIRHRPPRLPRPRPRPVQVPRP | -0.162 |
| RRIRPRPPRLPRPRPRPIIGPRP | -0.0597 |
| RRIRPRPPRLPRPRPRPCAFPRP | -0.148 |
| RRIRHRPPRLPRPRPRPWDVPRP | -0.0319 |
| RRIRTRPPRLPRPRPRPMLGPRP | -0.0672 |
| RRIRRRPPRLPRPRPRPDYMPRP | -0.384 |
| RRIRTRPPRLPRPRPRPFWFPRP | 0.526 |
| RRIRSRPPRLPRPRPRPYPDPRP | -0.172 |
| RRIRDRPPRLPRPRPRPWYIPRP | -0.0219 |
| RRIRKRPPRLPRPRPRPCTIPRP | -0.204 |
| RRIRNRPPRLPRPRPRPDYWPRP | -0.21 |
| RRIRDRPPRLPRPRPRPPERPRP | 0.0665 |
| RRIRSRPPRLPRPRPRPLEKPRP | -0.0565 |

| Sequence | shrunken log2 fold change |
| --- | --- |
| RRIRTRPPRLPRPRPRPVASPRP | 0.0362 |
| RRIRQRPPRLPRPRPRPDTDPRP | -0.00927 |
| RRIRTRPPRLPRPRPRPVEFPRP | 0.0128 |
| RRIRGRPPRLPRPRPRPMPSPRP | 0.431 |
| RRIRCRPPRLPRPRPRPWGQPRP | -0.00973 |
| RRIRIRPPRLPRPRPRPETCPRP | 0.00626 |
| RRIRGRPPRLPRPRPRPQEYPRP | -0.00348 |
| RRIRSRPPRLPRPRPRPQDGPRP | -0.0336 |
| RRIRWRPPRLPRPRPRPLWEPRP | 0.0357 |
| RRIRMRPPRLPRPRPRPPLHPRP | 0.691 |
| RRIRFRPPRLPRPRPRPYELPRP | 0.0447 |
| RRIRRRPPRLPRPRPRPWMPPRP | -0.217 |
| RRIRQRPPRLPRPRPRPLLQPRP | 0.212 |
| RRIRCRPPRLPRPRPRPKWFPRP | 0.0996 |
| RRIRRRPPRLPRPRPRPASYPRP | -0.111 |
| RRIRYRPPRLPRPRPRPLSIPRP | -0.129 |
| RRIRLRPPRLPRPRPRPHPIPRP | 0.0174 |
| RRIRPRPPRLPRPRPRPWTQPRP | -0.0236 |
| RRIRNRPPRLPRPRPRPFMYPRP | -0.247 |
| RRIRTRPPRLPRPRPRPNRFPRP | -0.00879 |
| RRIRMRPPRLPRPRPRPGDVPRP | 0.333 |
| RRIRRRPPRLPRPRPRPMNLPRP | 0.0545 |

| Sequence | shrunken log2 fold change |
| --- | --- |
| RRIRYRPPRLPRPRPRPKQGPRP | 0.0737 |
| RRIRGRPPRLPRPRPRPNRSPRP | -0.0578 |
| RRIRVRPPRLPRPRPRPEVGPRP | 0.175 |
| RRIRRRPPRLPRPRPRPSGQPRP | 0.306 |
| RRIRWRPPRLPRPRPRPDRIPRP | 0.082 |
| RRIRHRPPRLPRPRPRPHFCPRP | -0.0593 |
| RRIRMRPPRLPRPRPRPDDFPRP | 0.938 |
| RRIRKRPPRLPRPRPRPATPPRP | 0.939 |
| RRIRTRPPRLPRPRPRPAGKPRP | 0.196 |
| RRIRMRPPRLPRPRPRPTGYPRP | 0.0453 |
| RRIRLRPPRLPRPRPRPPDGPRP | 0.0617 |
| RRIRGRPPRLPRPRPRPRHRPRP | 0.401 |
| RRIRFRPPRLPRPRPRPVNAPRP | 0.135 |
| RRIRIRPPRLPRPRPRPESWPRP | 0.249 |
| RRIRHRPPRLPRPRPRPCDIPRP | -0.0274 |
| RRIRERPPRLPRPRPRPEYWPRP | 0.126 |
| RRIRIRPPRLPRPRPRPSIFPRP | -0.764 |
| RRIRWRPPRLPRPRPRPDMWPRP | 0.228 |
| RRIRSRPPRLPRPRPRPSCDPRP | -0.444 |
| RRIRRRPPRLPRPRPRPLEKPRP | 0.477 |
| RRIRTRPPRLPRPRPRPAQQPRP | 0.233 |
| RRIRWRPPRLPRPRPRPTPPPRP | 0.639 |

| Sequence | shrunken log2 fold change |
| --- | --- |
| RRIRVRPPRLPRPRPRPMGGPRP | 0.062 |
| RRIRARPPRLPRPRPRPIFYPRP | -0.0773 |
| RRIRGRPPRLPRPRPRPYKAPRP | -0.354 |
| RRIRKRPPRLPRPRPRPCKHPRP | -0.11 |
| RRIRSRPPRLPRPRPRPNMQPRP | -0.0719 |
| RRIRKRPPRLPRPRPRPELSPRP | 0.0277 |
| RRIRNRPPRLPRPRPRPRPCPRP | 0.0913 |
| RRIRLRPPRLPRPRPRPMYNPRP | -0.273 |
| RRIRARPPRLPRPRPRPACHPRP | 0.371 |
| RRIRPRPPRLPRPRPRPHWIPRP | -0.212 |
| RRIRGRPPRLPRPRPRPSKMPRP | 0.0491 |
| RRIRERPPRLPRPRPRPQQYPRP | -0.318 |
| RRIRPRPPRLPRPRPRPGFMPRP | 0.048 |
| RRIRKRPPRLPRPRPRPSKWPRP | -0.119 |
| RRIRMRPPRLPRPRPRPQYHPRP | -0.299 |
| RRIRSRPPRLPRPRPRPNEHPRP | -0.655 |
| RRIRCRPPRLPRPRPRPLGIPRP | -0.149 |
| RRIRRRPPRLPRPRPRPFFEPRP | 0.18 |
| RRIRQRPPRLPRPRPRPGTRPRP | 0.111 |
| RRIRSRPPRLPRPRPRPWKEPRP | -0.0075 |
| RRIRMRPPRLPRPRPRPCFMPRP | -0.136 |
